The target in the experiment is T1, human Calcitonin Gene Related Peptide alpha (Homo sapiens, C-terminal amide (-NH2 printed after the last residue F; the filing words it as 'the N-terminal phenylalanine is amidated'); 125I radiolabeled in the receptor binding assay of Example 6).
T1 construct: 37-residue peptide bought from American Peptides and Bachem; Coated directly on plates in the ELISA of the recombinant antibodies; also called CGRPα; CGRP-alpha
T1 peptide: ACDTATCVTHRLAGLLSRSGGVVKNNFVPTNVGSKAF
Description: ELISA, plates coated with CGRPα, anti-human IgG Fc-HRP detection. As for the experimental part: To characterize recombinant expressed antibodies for their ability to bind to human-CGRPα, antibody-containing solutions were tested by ELISA. All incubations were done at room temperature. Briefly, Immulon IV plagtes (Thermo Scientific), were coated with a CGRPα containing solution (1 ut/mL in PBS) for 2 hours. CGRPα-coated plates were then washed three times in wash buffer (PBS, 0.05% Tween-20). The plates were then blocked using a blocking solution (PBS, 0.5% fish skin gelatin, 0.05% Tween-20) for approximately one hour. The blocking solution was then removed and the plates were then incubated with a dilution series of the antibody being tested for approximately one hour. At the end of this incubation, the plate was washed three times with wash buffer and further incubated with a secondary antibody containing solution (Peroxidase conjugated affinipure F(ab′)2 fragment goat anti-human IgG, Fc fragment specific (Jackson Immunoresearch) for approximately 45 minutes and washed three times. At that point a substrate solution (TMB peroxidase substrate, BioFx) and incubated for 3 to 5 minutes in the dark. The reaction was stopped by addition of a HCl containing solution (0.5M) and the plate was read at 450 nm in a plate-reader.
A general note: An ELISA detects its analyte on a solid surface through an enzyme-linked reagent.

Substitutions are numbered along the chain they refer to.

B1: Antibody Ab1 (antibody, human IgG1, kappa, N297A, V domains shown)
VH: QSLEESGGRLVTPGTPLTLTCTVSGLDLSSYYMQWVRQAPGKGLEWIGVIGINDNTYYASWAKGRFTISRASSTTVDLKMTSLTTEDTATYFCARGDIWGPGTLVTVSS
VL: QVLTQTASPVSAAVGSTVTINCQASQSVYDNNYLAWYQQKPGQPPKQLIYSTSTLASGVSSRFKGSGSGTQFTLTISDLECADAATYYCLGSYDCSSGDCFVFGGGTEVVVKR
notes: Chimeric anti-CGRP antibody (rabbit variable regions, human gamma-1 and kappa constant regions), full length
As for B1, the binding result was “binds”.

B2: Antibody Ab11 (antibody, human IgG1, kappa, N297A, V domains shown)
VH: QSLEESGGRLVTPGGSLTLTCTVSGIDVTNYYMQWVRQAPGKGLEWIGVIGVNGKRYYASWAKGRFTISKTSSTTVDLKMTSLTTEDTATYFCARGDIWGPGTLVTVSS
VL: B1 VL with A12P, Q23R, D30Y, L79V, E80Q, A82D, S97N
notes: Chimeric anti-CGRP antibody, full length
B2: the binding result was “binds”.

B3: Antibody Ab4 (antibody, human IgG1, kappa, N297A, V domains shown)
VH: B1 VH with T22S, L26I, S30G, Q34N, D54G, N55A, R70K, A71T
VL: QVLTQTPSPVSAAVGSTVTINCQASQSVYHNTYLAWYQQKPGQPPKQLIYDASTLASGVPSRFSGSGSGTQFTLTISGVQCNDAAAYYCLGSYDCTNGDCFVFGGGTEVVVKR
Turning to B3, the binding result is reported as “binds”.

B4: Antibody Ab9 (antibody, human IgG1, kappa, N297A, V domains shown)
VH: QSLEESGGRLVTPGTPLTLTCTVSGIGLSSYYMQWVRQSPGRGLEWIGVIGSDGKTYYATWAKGRFTISKTSSTTVDLRMASLTTEDTATYFCTRGDIWGPGTLVTVSS
VL: B1 VL with A7P, S27N, D30N, K64R, L79V, E80Q, A82D, S97R
notes: as for B2
B4: the binding result is on record as “binds”.

B5: Antibody Ab7 (antibody, human IgG1, kappa, N297A, V domains shown)
VH: QEQLKESGGRLVTPGTSLTLTCTVSGIDLSNHYMQWVRQAPGKGLEWIGVVGINGRTYYASWAKGRFTISRTSSTTVDLKMTRLTTEDTATYFCARGDIWGPGTLVTVSS
VL: B1 VL with D30N, N31Y, L79V, E80Q, A82D, S97T
notes: as for B2
In the case of B5, the binding result was “binds”.

B6: Antibody Ab2 (antibody, human IgG1, kappa, N297A)
heavy: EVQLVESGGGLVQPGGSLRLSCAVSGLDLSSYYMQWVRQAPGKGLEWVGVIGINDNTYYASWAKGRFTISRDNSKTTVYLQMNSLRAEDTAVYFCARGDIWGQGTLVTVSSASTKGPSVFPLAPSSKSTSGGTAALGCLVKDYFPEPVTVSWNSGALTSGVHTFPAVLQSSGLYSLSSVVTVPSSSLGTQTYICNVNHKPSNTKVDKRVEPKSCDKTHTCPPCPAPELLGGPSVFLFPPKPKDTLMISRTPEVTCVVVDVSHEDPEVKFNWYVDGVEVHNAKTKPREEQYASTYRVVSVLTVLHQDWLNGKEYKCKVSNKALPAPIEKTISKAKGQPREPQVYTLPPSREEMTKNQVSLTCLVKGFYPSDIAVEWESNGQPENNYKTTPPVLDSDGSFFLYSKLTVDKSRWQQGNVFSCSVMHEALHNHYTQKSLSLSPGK
light: QVLTQSPSSLSASVGDRVTINCQASQSVYDNNYLAWYQQKPGKVPKQLIYSTSTLASGVPSRFSGSGSGTDFTLTISSLQPEDVATYYCLGSYDCSSGDCFVFGGGTKVEIKRTVAAPSVFIFPPSDEQLKSGTASVVCLLNNFYPREAKVQWKVDNALQSGNSQESVTEQDSKDSTYSLSSTLTLSKADYEKHKVYACEVTHQGLSSPVTKSFNRGEC
notes: Humanized anti-CGRP antibody, full length
On to B6, for which the binding result was “binds”.

B7: Antibody Ab6 (antibody, human IgG1, kappa, N297A)
heavy: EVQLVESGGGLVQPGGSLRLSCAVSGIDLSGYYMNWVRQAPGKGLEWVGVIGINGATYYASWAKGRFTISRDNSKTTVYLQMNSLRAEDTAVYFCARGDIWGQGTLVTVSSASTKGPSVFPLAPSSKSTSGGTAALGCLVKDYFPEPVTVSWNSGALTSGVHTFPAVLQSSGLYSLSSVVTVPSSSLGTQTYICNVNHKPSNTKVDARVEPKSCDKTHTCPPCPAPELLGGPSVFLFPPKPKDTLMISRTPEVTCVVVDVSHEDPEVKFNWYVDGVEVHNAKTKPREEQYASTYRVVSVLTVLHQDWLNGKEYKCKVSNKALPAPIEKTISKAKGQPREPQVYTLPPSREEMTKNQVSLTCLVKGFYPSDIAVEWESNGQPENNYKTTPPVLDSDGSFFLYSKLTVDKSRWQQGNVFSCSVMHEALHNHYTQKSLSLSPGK
light: B6 light with D30H, N32T, S51D, T52A, S96T, S97N
notes: as for B6
Consider B7, for which the binding result was “binds”.

B8: Antibody Ab10 (antibody, human IgG1, kappa, N297A)
heavy: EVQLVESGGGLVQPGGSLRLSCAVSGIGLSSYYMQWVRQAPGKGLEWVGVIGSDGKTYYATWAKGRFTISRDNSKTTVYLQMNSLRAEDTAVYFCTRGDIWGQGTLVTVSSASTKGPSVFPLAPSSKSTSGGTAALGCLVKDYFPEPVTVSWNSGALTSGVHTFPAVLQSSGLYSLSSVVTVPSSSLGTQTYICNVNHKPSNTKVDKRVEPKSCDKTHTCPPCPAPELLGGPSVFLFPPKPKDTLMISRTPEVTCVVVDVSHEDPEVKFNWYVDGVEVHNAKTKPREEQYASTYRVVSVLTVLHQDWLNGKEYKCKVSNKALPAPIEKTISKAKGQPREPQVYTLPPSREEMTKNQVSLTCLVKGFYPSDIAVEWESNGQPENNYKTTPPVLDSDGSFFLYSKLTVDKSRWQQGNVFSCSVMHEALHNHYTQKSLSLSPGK
light: B6 light with S27N, D30N, S97R
notes: as for B6
As to B8, the binding result is “binds”.

B9: Antibody Ab12 (antibody, human IgG1, kappa, N297A, V domains shown)
VH: EVQLVESGGGLVQPGGSLRLSCAVSGIDVTNYYMQWVRQAPGKGLEWVGVIGVNGKRYYASWAKGRFTISRDNSKTTVYLQMNSLRAEDTAVYFCARGDIWGQGTLVTVSS
VL: QVLTQSPSSLSASVGDRVTINCRASQSVYYNNYLAWYQQKPGKVPKQLIYSTSTLASGVPSRFSGSGSGTDFTLTISSLQPEDVATYYCLGSYDCSNGDCFVFGGGTKVEIKR
notes: as for B6
Turning to B9, the binding result is listed as “binds”.

B10: Antibody Ab14 (antibody, human IgG1, kappa, N297A)
heavy: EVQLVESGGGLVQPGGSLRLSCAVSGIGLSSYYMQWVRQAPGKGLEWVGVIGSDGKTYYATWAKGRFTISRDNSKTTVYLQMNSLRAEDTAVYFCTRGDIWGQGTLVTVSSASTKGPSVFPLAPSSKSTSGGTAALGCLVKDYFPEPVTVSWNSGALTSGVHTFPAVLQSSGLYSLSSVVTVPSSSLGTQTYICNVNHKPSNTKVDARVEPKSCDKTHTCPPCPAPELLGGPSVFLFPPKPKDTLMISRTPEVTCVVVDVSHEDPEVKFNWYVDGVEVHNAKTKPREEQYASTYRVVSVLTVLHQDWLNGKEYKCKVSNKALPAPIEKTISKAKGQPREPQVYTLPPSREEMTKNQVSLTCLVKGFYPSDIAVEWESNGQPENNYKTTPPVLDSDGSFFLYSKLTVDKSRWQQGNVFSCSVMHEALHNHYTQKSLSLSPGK
light: B6 light with S27N, D30N, S97R
notes: as for B6
Take B10: the binding result is “binds”.

B11: Antibody Ab8 (antibody, human IgG1, kappa, N297A, V domains shown)
VH: B9 VH with V29L, T30S, Y32H, I51V, V53I, K56R, R57T
VL: B9 VL with R23Q, Y30N, N31Y, N97T
notes: as for B6
On to B11, for which the binding result is given as “binds”.

B12: Antibody Ab5 (antibody, human IgG1, kappa, N297A)
heavy: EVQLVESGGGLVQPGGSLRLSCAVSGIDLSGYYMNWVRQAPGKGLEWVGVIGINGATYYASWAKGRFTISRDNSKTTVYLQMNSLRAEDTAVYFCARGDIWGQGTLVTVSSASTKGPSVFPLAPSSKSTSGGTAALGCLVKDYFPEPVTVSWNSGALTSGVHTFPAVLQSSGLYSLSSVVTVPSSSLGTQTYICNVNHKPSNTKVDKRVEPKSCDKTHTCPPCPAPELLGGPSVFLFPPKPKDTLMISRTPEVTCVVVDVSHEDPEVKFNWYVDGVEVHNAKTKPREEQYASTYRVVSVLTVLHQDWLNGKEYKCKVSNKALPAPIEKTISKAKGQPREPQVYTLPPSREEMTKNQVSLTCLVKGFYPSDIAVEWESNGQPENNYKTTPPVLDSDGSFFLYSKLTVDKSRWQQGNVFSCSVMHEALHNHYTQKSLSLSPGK
light: B6 light with D30H, N32T, S51D, T52A, S96T, S97N
Regarding B12, the binding result is “binds”.

B13: Antibody Ab3 (antibody, human IgG1, kappa, N297A)
heavy: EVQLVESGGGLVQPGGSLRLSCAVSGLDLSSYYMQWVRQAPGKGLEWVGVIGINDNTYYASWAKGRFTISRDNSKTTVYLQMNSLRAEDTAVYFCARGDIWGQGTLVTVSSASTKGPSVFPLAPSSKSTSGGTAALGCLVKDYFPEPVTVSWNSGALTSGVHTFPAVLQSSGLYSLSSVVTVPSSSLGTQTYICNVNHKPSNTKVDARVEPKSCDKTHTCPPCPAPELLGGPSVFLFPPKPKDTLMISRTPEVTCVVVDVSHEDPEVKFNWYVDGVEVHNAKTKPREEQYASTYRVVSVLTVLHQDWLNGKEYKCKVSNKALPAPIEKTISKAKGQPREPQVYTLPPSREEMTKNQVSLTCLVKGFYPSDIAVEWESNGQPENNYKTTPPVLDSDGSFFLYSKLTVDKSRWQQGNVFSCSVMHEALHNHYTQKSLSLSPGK
light: B6 light
As to B13, the binding result is given as “binds”.

The values above are taken from US20120294802A1 (ALDERBIO, published 2012).
